This assay deals with T1, OC43 spike S2 subunit extracellular domain with T4 foldon (HCoV-OC43).
T1 chain: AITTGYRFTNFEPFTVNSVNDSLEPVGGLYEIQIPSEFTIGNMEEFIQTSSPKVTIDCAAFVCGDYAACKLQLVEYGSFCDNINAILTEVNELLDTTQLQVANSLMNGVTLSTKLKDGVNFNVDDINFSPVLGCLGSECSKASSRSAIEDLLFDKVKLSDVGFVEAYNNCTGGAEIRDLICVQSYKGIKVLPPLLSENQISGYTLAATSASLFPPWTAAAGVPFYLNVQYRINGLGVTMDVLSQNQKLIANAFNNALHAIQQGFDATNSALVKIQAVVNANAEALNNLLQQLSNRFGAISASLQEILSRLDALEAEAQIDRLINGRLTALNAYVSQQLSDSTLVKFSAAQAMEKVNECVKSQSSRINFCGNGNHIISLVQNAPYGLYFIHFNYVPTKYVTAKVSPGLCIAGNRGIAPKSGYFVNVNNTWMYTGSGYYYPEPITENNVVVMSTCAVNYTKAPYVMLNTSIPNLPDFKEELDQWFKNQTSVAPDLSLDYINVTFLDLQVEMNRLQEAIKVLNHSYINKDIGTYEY
Put plainly: BLI.

Consider 1 molecule from paper PMC12724371 (2025).

B1: 1871 Fab (Fab, V domains shown)
VH: EVQLVESGGGLVKPGGSLRLSCVASGFSFSIYSMNWVRQAPGKGLEWVSYISSSSSYKYYADSVKGRFSVSRDNAKNSLYLQLNGLRAEDTAVYYCARDGYCPKGVCTYYGMDVWGQGTTVTVSA
VL: EIVMTQSPATLSVSPGERVTLSCRASQSVRSRLAWFQQKPGQAPRLLIYDASIRATGIPARFSGSGSGTEFTLIISSLQSEDFAVYYCQQYDNWPPAYTFGQGTKLEIK
B1 had a Kd of less than 1 pM.

The term Kd denotes the equilibrium constant for the complex coming apart. A higher Kd goes with a looser complex.
